The results in this text go back to patent US20060024291A1 (DOHENY EYE INSTITUTE, published 2006).

For the test, the target named is T1, protocadherin-42 (human, UniProt Q08174 58-1060).
T1 construct: Full length human cDNA expressed in mouse L cells (pRC/RSV-pc42); tested on the transfected cells or in their extracts; also called pc42; human pc42
T1 sequence: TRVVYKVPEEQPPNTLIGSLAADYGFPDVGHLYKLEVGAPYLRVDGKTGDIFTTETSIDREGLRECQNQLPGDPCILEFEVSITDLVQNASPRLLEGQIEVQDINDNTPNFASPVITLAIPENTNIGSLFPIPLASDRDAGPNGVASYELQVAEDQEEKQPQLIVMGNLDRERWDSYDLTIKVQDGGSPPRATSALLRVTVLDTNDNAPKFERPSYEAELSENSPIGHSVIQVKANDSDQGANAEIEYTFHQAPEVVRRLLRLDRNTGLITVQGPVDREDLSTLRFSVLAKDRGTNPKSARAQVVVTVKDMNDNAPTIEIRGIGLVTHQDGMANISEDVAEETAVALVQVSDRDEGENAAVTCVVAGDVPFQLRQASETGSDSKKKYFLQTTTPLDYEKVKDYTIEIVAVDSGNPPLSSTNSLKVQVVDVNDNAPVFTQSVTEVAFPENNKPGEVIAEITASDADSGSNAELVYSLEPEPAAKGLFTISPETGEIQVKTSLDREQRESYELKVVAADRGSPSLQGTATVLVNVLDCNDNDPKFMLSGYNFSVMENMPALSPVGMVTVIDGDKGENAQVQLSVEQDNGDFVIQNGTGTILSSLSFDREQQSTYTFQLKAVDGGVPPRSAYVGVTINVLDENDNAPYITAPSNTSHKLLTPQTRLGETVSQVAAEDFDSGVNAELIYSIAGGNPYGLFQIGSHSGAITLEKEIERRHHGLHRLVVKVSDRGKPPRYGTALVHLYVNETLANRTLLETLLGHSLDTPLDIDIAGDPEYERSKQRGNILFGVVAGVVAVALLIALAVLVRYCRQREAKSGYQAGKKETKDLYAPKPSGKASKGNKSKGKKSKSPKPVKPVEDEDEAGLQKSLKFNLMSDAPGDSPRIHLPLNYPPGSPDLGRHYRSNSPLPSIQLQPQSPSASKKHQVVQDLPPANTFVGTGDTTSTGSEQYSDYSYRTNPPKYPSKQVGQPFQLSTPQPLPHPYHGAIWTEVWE
Kind of test: mixed cell aggregation assay, DiO-labelled pc43 transfectants with unlabelled pc42 transfectants. On the procedure:
The cell aggregation properties of the transfected L cells expressing protocadherin proteins were examined. Transfected L cells were cultured in Dulbecco's Modified Eagles Medium (DMEM) (Gibco, Grand Island, N.Y.) supplemented with 10% fetal bovine serum at 37° C. in 5% CO₂. Cells grown near confluence were treated with 0.01% trypsin in the presence of 1 mM EGTA for 25 minutes on a rotary shaker at 37° C. and collected by centrifugation. The cells were washed three times with Ca²⁺ free HEPES-buffered saline (HBS) after adding soybean trypsin inhibitor, and were resuspended in HBS containing 1% BSA. The cell aggregation assay [Urushihara et al., Dev. Biol., 70: 206-216 (1979)] was performed by incubating the resuspended cells in a 1:1 mixture of DMEM and HBS containing 1% BSA, 2 mM CaCl₂ and 20 μg/ml of deoxyribonucelease on a rotary shaker at 37° C. for 30 minutes to 6 hours.
This is in contrast to the cell aggregation that occurs with classic cadherins in similar experiments (Nagafuchi et al., supra, and Hatta et al., supra). […] Similar results were obtained when single cell suspensions of transfected cells were prepared by trypsin treatment in the presence of Ca²⁺. No re-aggregation was observed under the same conditions when untransfected L cells or L cells transfected with pRC/RSV vector alone were tested.

B1: protocadherin-43 (receptor)
chain: VIHYEIPEEREKGFAVGNVVANLGLDLGSLSARRFPVVSGASRRFFEVNRETGEMFVNDRLDREELCGTLPSCTVTLELVVENPLELFSVEVVIQDINDNNPAFPTQEMKLEISEAVAPGTRFPLESAHDPDLGSNSLQTYELSRNEYFALRVQTREDSTKYAELVLERALDREREPSLQLVLTALDGGTPALSASLPIHIKVLDANDNAPVFNQSLYRARVPGGCTSGTRVVQVLATDLDEGPNGEIIYSFGSHNRAGVRQLFALDLVTGMLTIKGRLDFEDTKLHEIYIQAKDKGANPEGAHCKVLVEVVDVNDNAPEITVTSVYSPVPEDASGTVIALLSVTDLDAGENGLVTCEVPPGLPFSLTSSLKNYFTLKTSADLDRETVPEYNLSITARDAGTPSLSALTIVRVQVSDINDNPPQSSQSSYDVYIEENNLPGAPILNLSVWDPDAPQNARLSFFLLEQGAETGLVGRYFTINRDNGIVSSLVPLDYEDRREFELTAHISDGGTPVLATNISVNIFVTDRNDNAPQVLYPRPGGSSVEMLPRGTSAGHLVSRVVGWDADAGHNAWLSYSLFGSPNQSLFAIGLHTGQISTARPVQDTDSPRQTLTVLIKDNGEPSLSTTATLTVSVTEDSPEARAEFPSGSAPREQKKNLTFYLLLSLILVSVGFVVTVFGVIIFKVYKWKQSRDLYRAPVSSLYRTPGPSLHADAVRGGLMSPHLYHQVYLTTDSRRSDPLLKKPGAASPLASRQNTLRSCDPVFYRQVLGAESAPPGQQAPPNTDWRFSQAQRPGTSGSQNGDDTGTWPNNQFDTEMLQAMILASASEAADGSSTLGGGAGTMGLSARYGPQFTLQHVPDYRQNVYIPGSNAH
notes: Full length human cDNA expressed in mouse L cells (pRC/RSV-pc43); tested on the transfected cells or in their extracts; also endogenous pc43 in human tissue sections; also called pc43; human pc43
Consider B1, for which the binding result was “no binding”.
